From the DeepSol protein solubility set

assay: soluble on expression in E. coli; label from the status in PepcDB or PDB records

Q: For “MASMNDFIGRWKLVQTENFDEYMKEIGVGLITRKAAAHLKPILEIRLDGETWNFDQFSTFKNTKLSFKLGEEFVENSPDDRTYNSLFTFENGKLTHRQNKIKENHKSSVLTTWLENGKLIQTYQSGDVICRREWERE”, which “soluble on expression in E. coli” value is on record?
A: Its value is “not soluble”.

Q: Which “soluble on expression in E. coli” value does the source give for “MNVGLSAEVRYHWFREHLVVVGDWHRLSPSERDRLRHQPMPDEAAQSLRVDLSPWSCGMVFSELLGADLTRFGLCYLAPAEVPASDLTRLGRRLREEFPLLDSQVDSGAEGFELVVHGQPEESPALEVGPFADENALIAALLQRPHSLFERGLLRLFHGRCGGRARWGVWLHHLVADADFASVLLARLAVLNADPTTEAAAPEFGFLQQQWRLERQLRERRTRLEDYWSERGEAFRELASLPWAERASHCEDFRLAATPGGGEAALLTRLACALALALASQGATGKVLALTPVSLRSRRGTAVSGCWLNLVPLLLDAATAEDTFERHRLEAFEHSLLPAEAIAERAGLRYADAQVMINVIDQPFHSAGFIHRPTLKSRLPLTLTLVRRDDGGWDASLASRFGRERTLALAAAMAEALRPC” here?
A: Its value is “not soluble”.

Q: Which “soluble on expression in E. coli” value does the source give for “SKFDKLNKAYEQIKSDYYQKTDDDKLVDGAIKGMIQSLDDPYSTYMDQEQAKSFDETISASFEGIGAQVEEKDGEILIVSPIKGSPAEKAGIKPRDQIIKVNGKSVKGMNVNEAVALIRGKKGTKVKLELNRAGVGNIDLSIKRDTIPVETVYSEMKDNNIGEIQITSFSETTAKELTDAIDSLEKKGAKGYILDLRGNPGGLMEQAITMSNLFIDKGKNIMQVEYKNGSKEVMKAEKERKVTKPTVVLVNDGTASAAEIMAAALHESSNVPLIGETTFGKGTVQTAKEYDDGSTVKLTVAKWLTADGEWIHKKGIKPQVKAELPDYAKLPYLDADKTYKSGDTGTNVKVAQKMLKALGYKVKVNSMYDQDFVSVVKQFQKKEKLNETGILTGDTTTKLMIELQKKLSDNDTQMEKAIETLKK” here?
A: Its value is “not soluble”.

Q: For “MGSDKIHHHHHHMTDPRILSLQQAVPALRLKTEPADLEHYGRDWTRRWTPNPLAIALPGSVEEVQAVVRWANTHAVAVVPSGGRTGLSGGAVAANGELVLSLERLNKPLAFDAVDRTLTVQAGMPLEAVHNAAREHGLVYPVDFAARGSCSIGGNIATNAGGIRVIRYGNTREWVAGLSVVTGTGELLHLNNALVKNSSGYDFRHLMIGSEGTLGIVVEATLRLTDPPPPSNVMLLALPSFDVLMQVFAAFRAQLRLEAFEFFTDRALEHVLAHGAQAPFAEVHPYYVVTEFAAGDEAQEAAAMAAFEACMEQGWVSDGVISQSDAQAAQLWRLREGITEALARYTPYKNDVSVRISAMPAFLAETQALLHDAYPHFDVVWFGHIGDGNLHINVLKPDATSQADFITACEQVTKLLAQSLQRFDGSISAEHGIGLVKKPYLWSTRSAAEIALMRGIKHVLDPHLLLNPGKLFDMDEVPGATPAG”, which “soluble on expression in E. coli” value is on record?
A: Its value is “not soluble”.

Q: With “MLNQPRLDEIMRLLAQQQRVKASDLAQLLFVSEETIRRDFKHLEEEGRLRRIHGGAILPRSSEELPLQERSRLKPRAKAGIATCAAQLVTEGMAIFLDTGTSTLALAQQLTRFSQLKIITNSLDIAQLISHQSDNQVLVAPGDVRRTDNALIGPHTLEFARQFHYDIAFMGIGGIDLDLGLMDYQEPEAMLRRTLVRHCARSVVLADDGKFGHRTFINTLPFAAITTLVTNRPLSDEFATRLEKDHVDTLYP” as the sequence, how does the “soluble on expression in E. coli” value read?
A: Its value is “not soluble”.

Q: For “MSLGLIRAQPKSGYYVSNHAIKQLASKTTPVPEQASTVVSISDMVFSILSSIKDPETVPLGSAFPWPDLFPLARLSRSLAHATRDMGPAAIVESLPPGNHDLRRQIARRYLMQGVEADVDNILITNGAFEALNLCLEAVTQPGDLVAIESPTFHGCLQALERLQLKAVEIPVDPVLGMDLDYLESVLEKCPVRACWSMTSFQNPMGVSMPAERKQVLVELLTRYRIPLIEDDVYGELYFGMQEHRPAKAYDSEGYVMHCSSFSKTLAPGYRIGWALLPKRFERKVERLKVITSLSTSTIAQAAIADFLQHGGYDRHLRRLRTKFELQQHQYLHLIARYFPAETQVTRPHGGYFLWVDLPERVDALVLFQRALEQGVSVAPGPIFSARHQCCNCIRINYSKPVDAEVEQAFKTLGRLMSSIEAEGHHHHHH”, which “soluble on expression in E. coli” value is on record?
A: The value was “soluble”.
